Data: patent publication US20240002531A1 (ONO PHARMACEUTICAL, published 2024)
Like-named read-outs stand apart in the source and are kept apart here. One block for each binder: values may come before it.

Tests used:
Assay in all cases: SPR Biacore, mAb on chip, peptide analyte, 1:1 fit
HER2 peptide p610-622 = target: T1, HER2 peptide p610-622 (human)
T1 peptide: YMPIWKFPDEEGA

HER2 peptide p612-618 [1] = target: T2, HER2 peptide p612-618 (human)
T2 construct: also called PIWKFPD
T2 peptide: PIWKFPD

HER2 peptide p609-621 [2] = target: T3, HER2 peptide p609-621 (human)
T3 peptide: SYMPIWKFPDEEG

HER2 peptide p612-620 [3] = target: T4, HER2 peptide p612-620 (human)
T4 peptide: PIWKFPDEE

HER2 peptide p614-620 = target: T5, HER2 peptide p614-620 (human)
T5 peptide: WKFPDEE

HER2 peptide p613-619 = target: T6, HER2 peptide p613-619 (human)
T6 peptide: IWKFPDE

HER2 peptide p611-620 = target: T7, HER2 peptide p611-620 (human)
T7 peptide: MPIWKFPDEE

HER2 peptide p610-621 = target: T8, HER2 peptide p610-621 (human)
T8 peptide: YMPIWKFPDEEG

HER2 peptide p614-619 = target: T9, HER2 peptide p614-619 (human)
T9 peptide: WKFPDE

HER2 peptide p609-620 = target: T10, HER2 peptide p609-620 (human)
T10 peptide: SYMPIWKFPDEE

HER2 peptide p611-621 = target: T11, HER2 peptide p611-621 (human)
T11 peptide: MPIWKFPDEEG

HER2 peptide p610-620 = target: T12, HER2 peptide p610-620 (human)
T12 peptide: YMPIWKFPDEE

HER2 peptide p610-618 = target: T13, HER2 peptide p610-618 (human)
T13 peptide: YMPIWKFPD

HER2 peptide p609-619 = target: T14, HER2 peptide p609-619 (human)
T14 peptide: SYMPIWKFPDE

HER2 peptide p610-619 = target: T15, HER2 peptide p610-619 (human)
T15 peptide: YMPIWKFPDE

HER2 peptide p612-621 = target: T16, HER2 peptide p612-621 (human)
T16 peptide: PIWKFPDEEG

HER2 peptide p612-618 [4] = target: T2, HER2 peptide p612-618
HER2 peptide p611-618 = target: T17, HER2 peptide p611-618 (human)
T17 peptide: MPIWKFPD

HER2 peptide p609-621 [5] = target: T3, HER2 peptide p609-621
[6] = target: T18, HER2 peptide p603-622 (amino acids 603 to 622 of human HER2) (human)
T18 construct: Synthetic peptide; also called wild-type HER2 peptide
T18 peptide: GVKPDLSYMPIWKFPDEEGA

HER2 peptide p609-618 = target: T19, HER2 peptide p609-618 (human)
T19 peptide: SYMPIWKFPD

HER2 peptide p612-620 [7] = target: T4, HER2 peptide p612-620
HER2 peptide p613-618 = target: T20, HER2 peptide p613-618 (human)
T20 peptide: IWKFPD

HER2 peptide p613-621 = target: T21, HER2 peptide p613-621 (human)
T21 peptide: IWKFPDEEG

HER2 peptide p609-622 = target: T22, HER2 peptide p609-622 (human)
T22 peptide: SYMPIWKFPDEEGA

Kd (HER2 peptide p610-622): 1.81 nM
koff (HER2 peptide p610-622): 0.00033 s⁻¹
kon (HER2 peptide p610-622): 183000 M⁻¹ s⁻¹
Kd (HER2 peptide p612-618 [1]): 1.92 nM
koff (HER2 peptide p612-618 [1]): 0.00057 s⁻¹
kon (HER2 peptide p612-618 [1]): 296000 M⁻¹ s⁻¹
Kd (HER2 peptide p609-621 [2]): 1.17 nM
koff (HER2 peptide p609-621 [2]): 0.000289 s⁻¹
kon (HER2 peptide p609-621 [2]): 247000 M⁻¹ s⁻¹
Kd (HER2 peptide p612-620 [3]): 4.39 nM
koff (HER2 peptide p612-620 [3]): 0.000756 s⁻¹
kon (HER2 peptide p612-620 [3]): 172000 M⁻¹ s⁻¹
B1: H2Mab-250 antibody (antibody, V domains shown)
VH: EVQLVESGGGLVQPGGSLKLSCAASGFTFSNYGMSWVRQTPDRRLELVATINNNGGGTYYPDSVKGRFTISRDNAKNTLYLQMSSLKSEDTAMYYCTSPGLLWDAWGAGTTVTVSS
VL: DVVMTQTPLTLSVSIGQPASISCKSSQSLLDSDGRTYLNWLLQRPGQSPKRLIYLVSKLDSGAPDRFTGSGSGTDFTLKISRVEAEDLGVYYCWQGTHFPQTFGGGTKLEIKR
notes: Mouse monoclonal from a hybridoma (immunogen HER2ec made in LN229 cells); also called antibody of the present invention

Kd (HER2 peptide p614-620): 41200 nM
koff (HER2 peptide p614-620): 0.0152 s⁻¹
kon (HER2 peptide p614-620): 370 M⁻¹ s⁻¹
Kd (HER2 peptide p613-619): 1610 nM
koff (HER2 peptide p613-619): 0.0136 s⁻¹
kon (HER2 peptide p613-619): 8450 M⁻¹ s⁻¹
Kd (HER2 peptide p611-620): 17.6 nM
koff (HER2 peptide p611-620): 0.00836 s⁻¹
kon (HER2 peptide p611-620): 475000 M⁻¹ s⁻¹
Kd (HER2 peptide p610-621): 8.57 nM
koff (HER2 peptide p610-621): 0.00519 s⁻¹
kon (HER2 peptide p610-621): 679000 M⁻¹ s⁻¹
Kd (HER2 peptide p614-619): 8540 nM
koff (HER2 peptide p614-619): 0.0119 s⁻¹
kon (HER2 peptide p614-619): 1400 M⁻¹ s⁻¹
Kd (HER2 peptide p609-620): 6.89 nM
koff (HER2 peptide p609-620): 0.00445 s⁻¹
kon (HER2 peptide p609-620): 645000 M⁻¹ s⁻¹
Kd (HER2 peptide p611-621): 16.8 nM
koff (HER2 peptide p611-621): 0.00961 s⁻¹
kon (HER2 peptide p611-621): 571000 M⁻¹ s⁻¹
Kd (HER2 peptide p610-620): 8.68 nM
koff (HER2 peptide p610-620): 0.00502 s⁻¹
kon (HER2 peptide p610-620): 579000 M⁻¹ s⁻¹
Kd (HER2 peptide p610-618): 14.5 nM
koff (HER2 peptide p610-618): 0.0121 s⁻¹
kon (HER2 peptide p610-618): 837000 M⁻¹ s⁻¹
Kd (HER2 peptide p609-619): 5.76 nM
koff (HER2 peptide p609-619): 0.00449 s⁻¹
kon (HER2 peptide p609-619): 779000 M⁻¹ s⁻¹
Kd (HER2 peptide p610-619): 5.74 nM
koff (HER2 peptide p610-619): 0.0051 s⁻¹
kon (HER2 peptide p610-619): 889000 M⁻¹ s⁻¹
Kd (HER2 peptide p612-621): 27.9 nM
koff (HER2 peptide p612-621): 0.024 s⁻¹
kon (HER2 peptide p612-621): 859000 M⁻¹ s⁻¹
Kd (HER2 peptide p612-618 [4]): 27.7 nM
koff (HER2 peptide p612-618 [4]): 0.013 s⁻¹
kon (HER2 peptide p612-618 [4]): 467000 M⁻¹ s⁻¹
Kd (HER2 peptide p611-618): 21 nM
koff (HER2 peptide p611-618): 0.0141 s⁻¹
kon (HER2 peptide p611-618): 669000 M⁻¹ s⁻¹
Kd (HER2 peptide p609-621 [5]): 8.06 nM
koff (HER2 peptide p609-621 [5]): 0.00465 s⁻¹
kon (HER2 peptide p609-621 [5]): 577000 M⁻¹ s⁻¹
Kd [6]: 22.8 nM
koff [6]: 0.00534 s⁻¹
Kd (HER2 peptide p609-618): 14.3 nM
koff (HER2 peptide p609-618): 0.0107 s⁻¹
kon (HER2 peptide p609-618): 747000 M⁻¹ s⁻¹
Kd (HER2 peptide p612-620 [7]): 23.7 nM
koff (HER2 peptide p612-620 [7]): 0.0179 s⁻¹
kon (HER2 peptide p612-620 [7]): 754000 M⁻¹ s⁻¹
Kd (HER2 peptide p613-618): 915 nM
koff (HER2 peptide p613-618): 0.013 s⁻¹
kon (HER2 peptide p613-618): 14200 M⁻¹ s⁻¹
Kd (HER2 peptide p613-621): 13000 nM
koff (HER2 peptide p613-621): 0.00955 s⁻¹
kon (HER2 peptide p613-621): 736 M⁻¹ s⁻¹
Kd (HER2 peptide p609-622): 9.37 nM
koff (HER2 peptide p609-622): 0.00526 s⁻¹
kon (HER2 peptide p609-622): 561000 M⁻¹ s⁻¹
B2: H2Mab-214 antibody (antibody, V domains shown)
VH: QVTLKESGPGILQPSQTLSLTCSFSGFSLSTSGMGVSWIRQPSGKGLEWLAHIFWDDDKRYNPSLKSRLTISKDTSRNKVFLKITSVDTADTATYYCARRVVATDWYFDVWGAGTTVTVSS
VL: DIVLTQSPASLAVSLGQRATISCRASESVEYYGTTLMQWYQQKPGQPPKLLIYAASKVESGVPARFSGSGSGTDFSLNIHPVEEDDVAMYFCQQSRKVPLTFGAGTKLELKR
notes: as for B1
